In the supplement of paper PMC10126150:
± gives the standard deviation of the averaged measurements.

Tested on: ATP
Test: switch fluorescence ratio, 500 uM ATP over buffer (Cy3 cluster intensity, sum of 5 cycles each) (fold (ratio)); higher = stronger signal-on switching upon ATP binding; sequences stand for … in TCGTCGGCAGCGTCAGATGTGTATAAGAGACAGTTTTTTTTTTTTTTTTTTTTTTTTT…TC
Details: aptamer strand: ATP DNA aptamer (quencher-CACCTGGGGGAGTATTGCGGAGGAAGG + anchor), 100 nM annealed; ATP concentration: 500 uM
Summary of the method: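 The fluorescence ratio divides summed target-cycle Cy3 intensity by summed buffer-cycle Cy3 intensity for each cluster and is averaged per switch-domain sequence. Cy3-labelled switching-strand clusters on a modified Illumina MiSeq flow-cell were annealed to 100 nM quencher-labelled ATP aptamer, then imaged in selection buffer and again after 15 min with 500 uM ATP at 22 °C. Five such cycles were run, with NaOH stripping and re-annealing between them, and clusters outside 100-1000 RFU were excluded.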
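Also: ATP exposure 15 min at 22 °C before imaging.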

Sequence | switch fluorescence ratio
TTCCTTGCGG | 1.08 ± 0.057
TTCCTTGGAG | 1.01 ± 0.047
TTCCTTTTAA | 1.04 ± 0.055
TTCGAAAAAA | 1.06 ± 0.14
TTCGAAAAAT | 1.05 ± 0.064
TTCGAAACGA | 1.1 ± 0.14
TTCGAAAGGT | 1.1 ± 0.2
TTCGAAATT | 1.02 ± 0.035
TTCGAGAGGG | 0.981 ± 0.028
TTCGAGATCT | 1.16 ± 0.11
TTCGAGCATT | 1.39 ± 0.17
TTCGAGGTTT | 0.982 ± 0.059
TTCGATCTGA | 0.955 ± 0.012
TTCGATTTGC | 1.01 ± 0.022
TTCGCAGGAT | 1.1 ± 0.027
TTCGCCGGCC | 1.26 ± 0.34
TTCGCGGCAC | 2.44 ± 1.3
TTCGCGGGCT | 0.996 ± 0.028
TTCGCTGCCT | 1.03 ± 0.019
TTCGCTGTAT | 1.01 ± 0.011
TTCGGACCAA | 1.46 ± 0.096
TTCGGAGCTG | 1.07 ± 0.14
TTCGGAGTAC | 1.38 ± 0.14
TTCGGAGTCT | 0.985 ± 0.094
TTCGGATATT | 1.13 ± 0.23

Sequence | switch fluorescence ratio
TTCGGCGCGG | 1.21 ± 0.32
TTCGGCTCGA | 1.05 ± 0.034
TTCGGCTGGG | 0.98 ± 0.034
TTCGGGAAAA | 0.982 ± 0.016
TTCGGGAGAG | 0.996 ± 0.071
TTCGGGGTAG | 0.963 ± 0.048
TTCGGGGTTA | 1.01 ± 0.018
TTCGGGGTTG | 0.96 ± 0.015
TTCGGGTCCT | 1.02 ± 0.031
TTCGGGTGTG | 0.999 ± 0.025
TTCGGTAGGG | 0.926 ± 0.053
TTCGGTTATG | 1.01 ± 0.033
TTCGGTTGGG | 0.986 ± 0.029
TTCGTAGACT | 0.991 ± 0.017
TTCGTGATAG | 1.308 ± 0.0028
TTCGTGGGCT | 1.02 ± 0.045
TTCGTGGGGG | 0.991 ± 0.015
TTCGTGGGGT | 1.03 ± 0.061
TTCGTGTGCC | 0.94 ± 0.011
TTCGTTATTA | 1.34 ± 0.42
TTCGTTGGCT | 1.16 ± 0.23
TTCGTTTGAA | 1 ± 0.027
TTCTAAAATT | 0.992 ± 0.032
TTCTAAAGTA | 0.994 ± 0.014
TTCTAAGGGG | 1.93 ± 1.3

Sequence | switch fluorescence ratio
TTCTAATGAG | 0.998 ± 0.019
TTCTACCTGA | 1.064 ± 0.0086
TTCTACTGAT | 1.32 ± 0.39
TTCTAGGCGC | 0.9972 ± 0.0073
TTCTAGGCGG | 1.03 ± 0.029
TTCTAGGGAA | 0.977 ± 0.023
TTCTAGGTAG | 0.991 ± 0.05
TTCTAGTTGA | 0.991 ± 0.022
TTCTATTGTT | 0.999 ± 0.017
TTCTCACGTC | 1.01 ± 0.082
TTCTCACTTG | 1.02 ± 0.03
TTCTCGCTGG | 1 ± 0.041
TTCTGAACGT | 1 ± 0.015
TTCTGATCAG | 1.01 ± 0.011
TTCTGATGGT | 0.99 ± 0.021
TTCTGATTGC | 0.984 ± 0.064
TTCTGCAGGT | 0.995 ± 0.011
TTCTGCCCC | 1.01 ± 0.033
TTCTGGAACT | 1.03 ± 0.015
TTCTGGCACA | 1.02 ± 0.029
TTCTGGCGCG | 0.984 ± 0.015
TTCTGGGGAG | 1.03 ± 0.051
TTCTGGGGGA | 0.992 ± 0.039
TTCTGGGGTA | 0.988 ± 0.033
TTCTGGTGTG | 0.9703 ± 0.0072

Sequence | switch fluorescence ratio
TTCTGTATGC | 1.02 ± 0.045
TTCTGTATGT | 0.97 ± 0.029
TTCTGTGGTG | 1.01 ± 0.028
TTCTGTTTGG | 1.01 ± 0.017
TTCTTAGAGT | 1.02 ± 0.016
TTCTTCATAG | 1.02 ± 0.015
TTCTTCTGGC | 1.017 ± 0.0073
TTCTTCTGGG | 0.997 ± 0.017
TTCTTGAAG | 0.966 ± 0.02
TTCTTGAGGT | 0.9669 ± 0.0016
TTCTTGGGGT | 0.975 ± 0.056
TTCTTGTAAT | 1.014 ± 0.003
TTCTTTGTTG | 0.984 ± 0.046
TTCTTTTAAT | 0.98998 ± 0.0005
TTCTTTTATG | 1.02 ± 0.021
TTGAAAAAGC | 0.975 ± 0.015
TTGAAACATT | 1.01 ± 0.024
TTGAAAGGGC | 1.02 ± 0.019
TTGAAAGGGT | 0.981 ± 0.087
TTGAAATGTT | 0.9923 ± 0.0033
TTGAACGAGC | 0.99 ± 0.04
TTGAACGGTG | 1.03 ± 0.047
TTGAAGAAAG | 0.976 ± 0.021
TTGAAGAGGT | 0.976 ± 0.049
TTGAAGATAA | 1.02 ± 0.033

Sequence | switch fluorescence ratio
TTGAAGCGGA | 1.03 ± 0.03
TTGAAGCGGC | 1.59 ± 0.76
TTGAAGCTGG | 0.9746 ± 0.0088
TTGAAGGGGA | 0.9736 ± 0.0039
TTGAAGGGGC | 0.997 ± 0.055
TTGAAGTGCG | 1.02 ± 0.049
TTGAAGTGTG | 1.02 ± 0.015
TTGAAGTTAC | 1.111 ± 0.0072
TTGAAGTTAG | 0.99 ± 0.02
TTGAATCGGG | 0.944 ± 0.035
TTGAATGAGG | 0.95006 ± 0.00095
TTGACAGGGT | 1.03 ± 0.07
TTGACCAAAA | 1.03 ± 0.055
TTGACCGATT | 0.978 ± 0.041
TTGACGAAGG | 0.95 ± 0.026
TTGACGACAC | 1.67 ± 0.45
TTGACGAGTT | 1.06 ± 0.081
TTGACGATGT | 1.17 ± 0.19
TTGACGCAGG | 1.06 ± 0.012
TTGACGCTAA | 2.37 ± 0.65
TTGACGGAGG | 0.983 ± 0.032
TTGACGGGCT | 1.05 ± 0.043
TTGACGGTGG | 1.05 ± 0.086
TTGACGGTGT | 1.028 ± 0.0021
TTGACGTGTC | 1 ± 0.043

Sequence | switch fluorescence ratio
TTGACTGTTC | 1.04 ± 0.043
TTGACTTACT | 1.18 ± 0.085
TTGACTTATA | 1.01 ± 0.022
TTGAGAAAAG | 1.06 ± 0.099
TTGAGACGGT | 1 ± 0.017
TTGAGAGTTG | 0.984 ± 0.046
TTGAGCAAGT | 1.14 ± 0.075
TTGAGCATGG | 1.06 ± 0.051
TTGAGCTGTG | 1.02 ± 0.019
TTGAGGAAGT | 1.06 ± 0.058
TTGAGGAATA | 0.9922 ± 0.008
TTGAGGCGAT | 1.23 ± 0.22
TTGAGGGAGC | 1.09 ± 0.038
TTGAGGGGA | 0.982 ± 0.021
TTGAGGGGAA | 0.999 ± 0.025
TTGAGGGTAA | 0.99263 ± 0.00084
TTGAGGGTGC | 1.01 ± 0.022
TTGAGGGTGG | 1.0305 ± 0.0005
TTGAGGTACT | 0.971 ± 0.052
TTGAGGTAGT | 0.984 ± 0.014
TTGAGGTATG | 0.9838 ± 0.0046
TTGAGGTGGC | 0.982 ± 0.018
TTGAGGTTTG | 1.03 ± 0.019
TTGAGTAGGT | 0.987 ± 0.031
TTGAGTGCTT | 0.987 ± 0.028

Sequence | switch fluorescence ratio
TTGAGTGTGG | 0.998 ± 0.03
TTGAGTGTTG | 1.01 ± 0.049
TTGAGTTCTC | 0.978 ± 0.016
TTGAGTTTGG | 0.985 ± 0.022
TTGATAGCCT | 1.06 ± 0.059
TTGATAGTAA | 1.04 ± 0.09
TTGATATGAG | 0.989 ± 0.048
TTGATCAGTG | 1.01 ± 0.015
TTGATCCGGG | 1.1 ± 0.055
TTGATCGGGG | 1.01 ± 0.028
TTGATCTAAT | 1 ± 0.011
TTGATCTTGA | 0.955 ± 0.085
TTGATGAGTG | 1.01 ± 0.033
TTGATGGCTA | 0.983 ± 0.021
TTGATGGGAC | 1.12 ± 0.021
TTGATGTGGT | 0.997 ± 0.084
TTGATTATCC | 0.99 ± 0.019
TTGATTATTG | 0.999 ± 0.032
TTGATTTTGC | 0.993 ± 0.013
TTGATTTTGG | 0.988 ± 0.026
TTGCAAGTCA | 1.05 ± 0.018
TTGCAAGTTG | 1.01 ± 0.021
TTGCACCCGT | 1.04 ± 0.053
TTGCACGTAA | 1.66 ± 0.42
TTGCAGATGG | 0.999 ± 0.057

Sequence | switch fluorescence ratio
TTGCAGGTGG | 1.03 ± 0.011
TTGCAGTTGT | 0.993 ± 0.041
TTGCATGCCG | 0.972 ± 0.036
TTGCATTTTT | 1.01 ± 0.034
TTGCCGCTGT | 1.18 ± 0.22
TTGCCGGGGG | 1.24 ± 0.38
TTGCCGGGGT | 1.1 ± 0.16
TTGCCGGTTT | 1.05 ± 0.021
TTGCCTAACT | 1.04 ± 0.028
TTGCCTAATG | 0.972 ± 0.035
TTGCCTTCTT | 1.03 ± 0.033
TTGCCTTTTT | 0.998 ± 0.028
TTGCGAATGT | 0.997 ± 0.038
TTGCGACCTG | 1.05 ± 0.04
TTGCGAGAGA | 0.993 ± 0.035
TTGCGAGGTC | 0.985 ± 0.037
TTGCGGGATG | 1.04 ± 0.051
TTGCGGGGTA | 0.978 ± 0.013
TTGCGGGGTG | 1.01 ± 0.045
TTGCGGGTTT | 1.29 ± 0.38
TTGCGGTGTG | 1 ± 0.024
TTGCGTAAAA | 0.961 ± 0.047
TTGCGTAAGG | 1.06 ± 0.056
TTGCGTACGG | 1.01 ± 0.053
TTGCGTGATG | 1.02 ± 0.029
